Assay results from patent US11969458B2, “Formula of neuregulin preparation” (Zensun (Shanghai) Science & Technology, Co., Ltd., priority 2014, dated 2024).

Assay: Narrow pH stability study of rhNRG-1 (pH 2.3 to 4.3) by RP-HPLC with Arrhenius shelf life prediction
Assay type: physicochemical
Description: In a plastic tube, add the API and DI-water. Mix into a solution containing 0.25 mg/mL rhNRG-1, 4 mM phosphate (from the API) and 0.1M NaCl (from the API). Adjust pH down using a diluted HCl. Once the first target is reached, transfer about 8 mL into a separate plastic tube and continue the titration to hit the next target and collect about 8 mL at each target (i.e. 4.29, 3.90, 3.78, 3.47, 3.36, 3.17, 3.02, 2.85, 2.58, 2.37 and 2.33). For each pH, transfer into glass vials for total 5 vials each level. Place one vial each at 2-8, 25, 40, 50 and 60° C. […]
For 40° C., remove 200 μL and test by HPLC after 0, 5.7, 7 and 11 days
Construct a narrow range pH-rate (stability) profile at each temperature.
Derive an Arrhenius equation and predict shelf life at 5° C.
Using the 40, 50 and 60° C. data for each pH (2.3 to 3.9), an Arrhenius plot was used to predict the shelf life at 5° C. for each pH level. The T90 values calculated from the Arrhenius plots are provided as follows (Table 11): […]

[1] = pH 2.37, predicted shelf life at 5° C. from Arrhenius plot
[2] = pH 2.58, predicted shelf life at 5° C. from Arrhenius plot
[3] = pH 3.02, predicted shelf life at 5° C. from Arrhenius plot
[4] = pH 3.36, predicted shelf life at 5° C. from Arrhenius plot
[5] = pH 3.90, predicted shelf life at 5° C. from Arrhenius plot

B1: rhNRG-1: proteins or peptides which consist of amino acid sequence of SEQ ID NO: 2 (protein, listed as Homo sapiens)
chain: SHLVKCAEKEKTFCVNGGECFMVKDLSNPSRYLCKCPNEFTGDRCQNYVMASFYKAEELYQ
- pH of the best stability, narrow pH study (pH 2.3 to 4.3): 3.4 (±0.2)
- Initial Conc (pH 2.37 (diluted HCl)): 0.241 mg/mL
- % over initial conc. (pH 2.37, 40° C., 5.7 days): 90%
- % over initial conc. (pH 2.37, 40° C., 7 days): 83%
- % over initial conc. (pH 2.37, 40° C., 11 days): 77%
- % over initial conc. (pH 2.37, 50° C., 5.7 days): 82%
- % over initial conc. (pH 2.37, 50° C., 7 days): 53%
- % over initial conc. (pH 2.37, 50° C., 11 days): 36%
- % over initial conc. (pH 2.37, 60° C., 3.7 days): 55%
- % over initial conc. (pH 2.37, 60° C., 4.7 days): 57%
- % over initial conc. (pH 2.37, 60° C., 5.7 days): 43%
- T90 [1]: 166 days
- T90 (months) [1]: 6 months
- Initial Conc (pH 2.58 (diluted HCl)): 0.238 mg/mL
- % over initial conc. (pH 2.58, 40° C., 5.7 days): 96%
- % over initial conc. (pH 2.58, 40° C., 7 days): 89%
- % over initial conc. (pH 2.58, 40° C., 11 days): 83%
- % over initial conc. (pH 2.58, 50° C., 5.7 days): 90%
- % over initial conc. (pH 2.58, 50° C., 7 days): 54%
- % over initial conc. (pH 2.58, 50° C., 11 days): 35%
- % over initial conc. (pH 2.58, 60° C., 3.7 days): 62%
- % over initial conc. (pH 2.58, 60° C., 4.7 days): 60%
- % over initial conc. (pH 2.58, 60° C., 5.7 days): 55%
- T90 [2]: 317 days
- T90 (months) [2]: 11 months
- Initial Conc (pH 3.02 (diluted HCl)): 0.236 mg/mL
- % over initial conc. (pH 3.02, 40° C., 5.7 days): 99%
- % over initial conc. (pH 3.02, 40° C., 7 days): 94%
- % over initial conc. (pH 3.02, 40° C., 11 days): 88%
- % over initial conc. (pH 3.02, 50° C., 5.7 days): 95%
- % over initial conc. (pH 3.02, 50° C., 7 days): 79%
- % over initial conc. (pH 3.02, 50° C., 11 days): 70%
- % over initial conc. (pH 3.02, 60° C., 3.7 days): 70%
- % over initial conc. (pH 3.02, 60° C., 4.7 days): 68%
- % over initial conc. (pH 3.02, 60° C., 5.7 days): 0%
- T90 [3]: 612 days
- T90 (months) [3]: 20 months
- Initial Conc (pH 3.36 (diluted HCl)): 0.230 mg/mL
- % over initial conc. (pH 3.36, 40° C., 5.7 days): 101%
- % over initial conc. (pH 3.36, 40° C., 7 days): 97%
- % over initial conc. (pH 3.36, 40° C., 11 days): 90%
- % over initial conc. (pH 3.36, 50° C., 5.7 days): 99%
- % over initial conc. (pH 3.36, 50° C., 7 days): 85%
- % over initial conc. (pH 3.36, 50° C., 11 days): 76%
- % over initial conc. (pH 3.36, 60° C., 3.7 days): 77%
- % over initial conc. (pH 3.36, 60° C., 4.7 days): 69%
- % over initial conc. (pH 3.36, 60° C., 5.7 days): 63%
- T90 [4]: 1092 days
- T90 (months) [4]: 36 months
- Initial Conc (pH 3.90 (diluted HCl)): 0.230 mg/mL
- % over initial conc. (pH 3.90, 40° C., 5.7 days): 101%
- % over initial conc. (pH 3.90, 40° C., 7 days): 96%
- % over initial conc. (pH 3.90, 40° C., 11 days): 88%
- % over initial conc. (pH 3.90, 50° C., 5.7 days): 102%
- % over initial conc. (pH 3.90, 50° C., 7 days): 88%
- % over initial conc. (pH 3.90, 50° C., 11 days): 79%
- % over initial conc. (pH 3.90, 60° C., 3.7 days): 83%
- % over initial conc. (pH 3.90, 60° C., 4.7 days): 81%
- % over initial conc. (pH 3.90, 60° C., 5.7 days): 73%
- T90 [5]: 239 days
- T90 (months) [5]: 8 months
- Initial Conc (pH 4.29 (diluted HCl)): 0.235 mg/mL
- % over initial conc. (pH 4.29, 50° C., 5.7 days): 100%
- % over initial conc. (pH 4.29, 50° C., 11 days): 78%
- % over initial conc. (pH 4.29, 60° C., 3.7 days): 80%
- % over initial conc. (pH 4.29, 60° C., 5.7 days): 72%
